As usually defined, the EC50 is the concentration that produces a half-maximal response.

This note sets out measurements from patent US20230242621A1 (VIR BIOTECHNOLOGY, published 2023).

This assay concerns the target T1, HBsAg (hepatitis B surface antigen; genotype or subtype not stated in the example) (hepatitis B virus).
T1 chain: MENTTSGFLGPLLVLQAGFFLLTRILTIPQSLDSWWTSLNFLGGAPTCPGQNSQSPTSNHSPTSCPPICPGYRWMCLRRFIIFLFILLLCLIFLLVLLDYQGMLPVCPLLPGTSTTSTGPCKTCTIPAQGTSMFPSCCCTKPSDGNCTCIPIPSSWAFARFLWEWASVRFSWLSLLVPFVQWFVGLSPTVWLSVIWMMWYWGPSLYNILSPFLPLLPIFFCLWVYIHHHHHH
The experiment in a line: ELISA on HBsAg; IgG1 with wild-type Fc. Background: An ELISA detects its analyte on a solid surface through an enzyme-linked reagent.

B1: HBC34-v36 (IgG1 with wild-type Fc, allotype G1m17, 1) (antibody, V domains shown)
VH: ELQLVESGGGWVQPGGSQRLSCAASGRIFRSFYMSWVRQAPGKGLEWVATINQDGSEKLYVDSVKGRFTISRDNAKNSLFLQMNNLRVEDTAVYYCAAWSGNSGGMDVWGQGTTVSVSS
VL: SYELTQPPSVSVSPGQTVSIPCSGDKLGNKNVAWFQHKPGQSPVLVIYQDSKRPSGIPERFSGSNSGNTATLTISGTQAMDEAAYFCQTFDSTTVVFGGGTRLTVLG
notes: also called L-CDR2 GL
With B1, the EC50 was found to be 0.7 ng/mL.
